The record followed here is paper PMC2775414.

The target in the test is heavy meromyosin-like fragment of myosin Va (MyoV-HMM), with its bound calmodulin (mouse | not stated) (UniProt Q99104).
heavy meromyosin-like fragment of myosin Va (MyoV-HMM), with its bound calmodulin (mouse | not stated), sequence (Q99104 1-1090): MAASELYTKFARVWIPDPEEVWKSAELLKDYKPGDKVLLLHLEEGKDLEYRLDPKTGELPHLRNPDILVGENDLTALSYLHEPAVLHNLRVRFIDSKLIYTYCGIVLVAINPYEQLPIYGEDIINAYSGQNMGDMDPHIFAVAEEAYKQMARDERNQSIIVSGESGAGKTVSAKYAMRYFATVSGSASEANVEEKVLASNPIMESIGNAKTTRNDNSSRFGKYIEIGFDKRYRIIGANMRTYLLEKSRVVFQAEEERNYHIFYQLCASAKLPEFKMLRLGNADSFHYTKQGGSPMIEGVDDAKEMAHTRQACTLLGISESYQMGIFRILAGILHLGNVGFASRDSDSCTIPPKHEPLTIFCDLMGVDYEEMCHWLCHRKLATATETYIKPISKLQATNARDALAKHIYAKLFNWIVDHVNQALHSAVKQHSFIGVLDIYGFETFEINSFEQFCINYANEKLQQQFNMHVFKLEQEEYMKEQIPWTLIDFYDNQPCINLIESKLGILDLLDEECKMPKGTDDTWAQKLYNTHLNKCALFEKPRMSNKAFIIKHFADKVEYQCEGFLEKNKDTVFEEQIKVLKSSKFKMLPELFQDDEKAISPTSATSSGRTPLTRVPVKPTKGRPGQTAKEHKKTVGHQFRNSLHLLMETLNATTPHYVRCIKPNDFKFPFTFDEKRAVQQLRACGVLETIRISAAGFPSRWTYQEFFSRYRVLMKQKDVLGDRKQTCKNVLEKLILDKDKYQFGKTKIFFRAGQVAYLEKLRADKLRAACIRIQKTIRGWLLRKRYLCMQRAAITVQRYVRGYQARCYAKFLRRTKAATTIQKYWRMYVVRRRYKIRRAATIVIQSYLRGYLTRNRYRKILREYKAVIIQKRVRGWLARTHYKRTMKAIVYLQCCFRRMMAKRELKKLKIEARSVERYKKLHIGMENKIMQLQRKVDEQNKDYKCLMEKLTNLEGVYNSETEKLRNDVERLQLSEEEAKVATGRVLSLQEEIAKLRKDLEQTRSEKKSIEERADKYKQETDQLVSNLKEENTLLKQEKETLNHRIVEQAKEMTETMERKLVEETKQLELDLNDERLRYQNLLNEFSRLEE

“Alexa-Fluor-568-labelled calmodulin (from UniProt P62157 1-149) (natural protein)” gave a labelled calmodulins exchanged per MyoV-HMM of 3 per MyoV-HMM.
